These results are taken from patent publication US20050256058A1 (GEORGIA TECH RESEARCH, published 2005).

Numbered stars: 1 amine (or outer) side, 2 acyl side, 3 side chain; on linkers, the order of the positions; unused ones are H or OH. Square brackets hold non-standard residues; d marks the D form. * marks the point of attachment. CH═CH‑CON(CH3)CH2CH2Ph = CN(CCc1ccccc1)C(=O)/C=C/*; AAsp = aza-Asp, O=C(N(CC(=O)[*:3])N[*:1])[*:2]; CH═CH‑CON(CH3)CH2Ph = CN(Cc1ccccc1)C(=O)/C=C/*; CH═CH‑COOCH2Ph = O=C(/C=C/*)OCc1ccccc1; CH═CH‑COOEt = CCOC(=O)/C=C/*; Cbz = O=C(OCc1ccccc1)*

Assay in all cases: cell-based or functional assay
Assay [1] has as its target T1, Caspase-9 (UniProt P55211 1-416, limits assumed).
T1 sequence (looked up): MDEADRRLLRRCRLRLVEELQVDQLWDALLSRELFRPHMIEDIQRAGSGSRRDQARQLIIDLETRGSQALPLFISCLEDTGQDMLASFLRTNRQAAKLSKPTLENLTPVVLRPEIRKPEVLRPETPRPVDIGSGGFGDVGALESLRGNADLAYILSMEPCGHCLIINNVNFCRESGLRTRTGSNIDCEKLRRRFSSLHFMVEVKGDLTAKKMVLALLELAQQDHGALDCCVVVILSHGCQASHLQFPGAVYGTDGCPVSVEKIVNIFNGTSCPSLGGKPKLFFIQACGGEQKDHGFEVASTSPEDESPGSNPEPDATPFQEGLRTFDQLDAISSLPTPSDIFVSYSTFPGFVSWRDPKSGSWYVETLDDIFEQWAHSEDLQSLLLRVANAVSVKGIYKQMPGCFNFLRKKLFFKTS

Assay [2] has as its target T2, Caspase-7 (UniProt P55210 24-303).
T2 sequence (looked up): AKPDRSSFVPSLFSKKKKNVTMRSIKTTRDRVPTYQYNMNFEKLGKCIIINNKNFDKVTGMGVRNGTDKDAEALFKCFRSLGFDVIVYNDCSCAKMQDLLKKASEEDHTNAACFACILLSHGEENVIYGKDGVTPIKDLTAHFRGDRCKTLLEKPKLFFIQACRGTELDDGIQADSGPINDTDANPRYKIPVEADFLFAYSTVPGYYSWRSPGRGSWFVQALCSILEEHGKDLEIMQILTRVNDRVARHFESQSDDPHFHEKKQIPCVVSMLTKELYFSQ

For assay [3], the target named is T3, Caspase-2 (UniProt P42575 170-452, limits assumed).
T3 sequence (looked up): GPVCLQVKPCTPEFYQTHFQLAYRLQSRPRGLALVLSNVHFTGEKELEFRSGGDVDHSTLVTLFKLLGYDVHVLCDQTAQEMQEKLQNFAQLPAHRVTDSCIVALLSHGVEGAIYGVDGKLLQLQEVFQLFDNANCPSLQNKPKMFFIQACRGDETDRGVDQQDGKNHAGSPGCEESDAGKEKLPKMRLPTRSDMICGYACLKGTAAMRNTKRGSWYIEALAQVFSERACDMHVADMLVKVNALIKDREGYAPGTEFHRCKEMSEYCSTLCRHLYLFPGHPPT

For assay [4], the target named is T4, Caspase-10 (UniProt Q92851 220-521, limits assumed).
T4 sequence (looked up): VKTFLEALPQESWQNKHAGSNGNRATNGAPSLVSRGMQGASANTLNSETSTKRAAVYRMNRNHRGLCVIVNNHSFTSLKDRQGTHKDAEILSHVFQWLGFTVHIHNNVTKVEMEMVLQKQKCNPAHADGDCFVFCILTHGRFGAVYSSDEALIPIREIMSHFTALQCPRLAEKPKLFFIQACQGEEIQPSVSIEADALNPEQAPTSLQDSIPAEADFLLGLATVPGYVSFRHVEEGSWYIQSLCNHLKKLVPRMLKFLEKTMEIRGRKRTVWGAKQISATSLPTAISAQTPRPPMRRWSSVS

For assay [5], the target named is Caspase-8 (UniProt Q14790 217-479).
For assay [6], the target named is T5, Caspase-3 (UniProt P42574 29-277).
T5 sequence (looked up): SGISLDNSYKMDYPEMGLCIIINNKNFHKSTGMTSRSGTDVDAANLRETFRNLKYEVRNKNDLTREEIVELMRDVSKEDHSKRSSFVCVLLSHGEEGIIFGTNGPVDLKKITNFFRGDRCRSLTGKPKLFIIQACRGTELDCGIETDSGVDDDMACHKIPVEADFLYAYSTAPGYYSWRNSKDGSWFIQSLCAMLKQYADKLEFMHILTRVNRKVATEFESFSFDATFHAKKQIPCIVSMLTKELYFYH

The target of assay [7] is T6, Caspase-6 (UniProt P55212 24-293, limits assumed).
T6 sequence (looked up): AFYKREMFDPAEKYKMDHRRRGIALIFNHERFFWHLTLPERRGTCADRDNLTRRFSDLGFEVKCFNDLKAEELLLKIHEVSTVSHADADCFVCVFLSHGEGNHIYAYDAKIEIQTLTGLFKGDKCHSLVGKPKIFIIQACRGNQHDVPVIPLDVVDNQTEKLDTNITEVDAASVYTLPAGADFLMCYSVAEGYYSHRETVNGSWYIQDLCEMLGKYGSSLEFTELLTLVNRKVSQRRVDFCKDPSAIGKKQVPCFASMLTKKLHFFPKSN

Chain of Caspase-8 (Q14790 217-479 limits assumed): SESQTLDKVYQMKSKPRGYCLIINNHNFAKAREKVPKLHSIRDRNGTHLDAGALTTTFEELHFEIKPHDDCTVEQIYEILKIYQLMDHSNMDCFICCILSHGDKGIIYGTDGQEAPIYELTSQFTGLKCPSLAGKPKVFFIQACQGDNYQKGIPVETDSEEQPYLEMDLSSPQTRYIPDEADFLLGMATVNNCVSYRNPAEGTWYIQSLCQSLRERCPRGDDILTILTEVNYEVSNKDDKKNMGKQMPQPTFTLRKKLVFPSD

B1: Cbz-Val-AAsp-CH═CH-4-Cl-Ph (peptide)
peptide: Cbz-Val-[AAsp]-{CH═CH‑4‑Cl‑Ph}
Take B1: the k2 in assay [1] came to 19 M⁻¹ s⁻¹.

B2: Cbz-Val-AAsp-CH═CH-CH═CH-CH3 (peptide)
peptide: Cbz-Val-[AAsp]-{CH═CH‑CH═CH‑CH3}
B2: in assay [2], the k2 came out at 56 M⁻¹ s⁻¹.

B3: Cbz-Leu-Glu-Thr-AAsp-CH═CH-CONHCH2-4-F-Ph (peptide)
peptide: Cbz-LET[AAsp]-{CH═CH‑CONHCH2‑4‑F‑Ph}
With B3, the k2 in assay [3] came to 70 M⁻¹ s⁻¹; in assay [4], 9380 M⁻¹ s⁻¹; in assay [5], 171000 M⁻¹ s⁻¹; in assay [6], 4490 M⁻¹ s⁻¹; in assay [2] it was 410 M⁻¹ s⁻¹; in assay [7], 3100 M⁻¹ s⁻¹. The k2 in assay [1] worked out at 1700 M⁻¹ s⁻¹.

B4: Cbz-Leu-Glu-Thr-AAsp-CH═CH-CONHCH2Ph (peptide)
peptide: Cbz-LET[AAsp]-{CH═CH‑CONHCH2Ph}
As for B4, the k2 was 66 M⁻¹ s⁻¹ in assay [3]; 14400 M⁻¹ s⁻¹ in assay [4]; 70200 M⁻¹ s⁻¹ in assay [5]; 1120 M⁻¹ s⁻¹ in assay [6]; 340 M⁻¹ s⁻¹ in assay [2]; 1550 M⁻¹ s⁻¹ in assay [7]. In assay [1], this molecule gave a k2 of 1400 M⁻¹ s⁻¹.

B5: Cbz-Asp-Glu-Val-AAsp-CH═CH-CONHCH2-4-F-Ph (peptide)
peptide: Cbz-DEV[AAsp]-{CH═CH‑CONHCH2‑4‑F‑Ph}
With B5, the k2 in assay [4] worked out at 37700 M⁻¹ s⁻¹; in assay [5], 85100 M⁻¹ s⁻¹; in assay [6], 2.1e+06 M⁻¹ s⁻¹; in assay [2] it was 329000 M⁻¹ s⁻¹; in assay [7], 4400 M⁻¹ s⁻¹; in assay [1], 900 M⁻¹ s⁻¹.

B6: Cbz-Leu-Glu-Thr-AAsp-CH═CH-CONHPh (peptide)
peptide: Cbz-LET[AAsp]-{CH═CH‑CONHPh}
B6: the k2 in assay [3] came to 290 M⁻¹ s⁻¹; in assay [4], 6050 M⁻¹ s⁻¹; in assay [5], 176000 M⁻¹ s⁻¹; in assay [6], 4700 M⁻¹ s⁻¹; in assay [2], 730 M⁻¹ s⁻¹; in assay [7], 11400 M⁻¹ s⁻¹. Further, the k2 in assay [1] was determined as 1190 M⁻¹ s⁻¹.

B7: Cbz-Asp-Glu-Val-AAsp-CH═CH-CON(CH3)CH2CH2Ph (peptide)
peptide: Cbz-DEV[AAsp]-{CH═CH‑CON(CH3)CH2CH2Ph}
SMILES: CC(C)[C@H](NC(=O)[C@H](CCC(=O)O)NC(=O)[C@H](CC(=O)O)NC(=O)OCc1ccccc1)C(=O)NN(CC(=O)O)C(=O)/C=C/C(=O)N(C)CCc1ccccc1
Turning to B7, the k2 turned out to be 320 M⁻¹ s⁻¹ in assay [3]; 9570 M⁻¹ s⁻¹ in assay [4]; 31900 M⁻¹ s⁻¹ in assay [5]; 1.18e+06 M⁻¹ s⁻¹ in assay [6]; 172000 M⁻¹ s⁻¹ in assay [2]; 4000 M⁻¹ s⁻¹ in assay [7]. The molecule also yielded a k2 in assay [1] of 425 M⁻¹ s⁻¹.

B8: Cbz-Val-AAsp-CH═CH-CONHCH2Ph (peptide)
peptide: Cbz-Val-[AAsp]-{CH═CH‑CONHCH2Ph}
In the case of B8, the k2 in assay [6] was found to be 185 M⁻¹ s⁻¹; in assay [2], 60 M⁻¹ s⁻¹; in assay [1] it was 20 M⁻¹ s⁻¹.

B9: Cbz-Asp-Glu-Val-AAsp-CH═CH-CON-tetrahydroquinoline (peptide)
peptide: Cbz-DEV[AAsp]-{CH═CH‑CO‑tetrahydroquinoline}
As to B9, the k2 is 390 M⁻¹ s⁻¹ in assay [3]; 8330 M⁻¹ s⁻¹ in assay [4]; 118000 M⁻¹ s⁻¹ in assay [5]; 2.3e+06 M⁻¹ s⁻¹ in assay [6]; 137000 M⁻¹ s⁻¹ in assay [2]; 5700 M⁻¹ s⁻¹ in assay [7]. Further, the k2 in assay [1] came to 340 M⁻¹ s⁻¹.

B10: Cbz-Val-AAsp-CH═CH-Cl (peptide)
peptide: Cbz-Val-[AAsp]-{CH═CH‑Cl}
modifications: also: cis isomer
Take B10: the k2 in assay [1] came out at 15 M⁻¹ s⁻¹.

B11: Cbz-Val-AAsp-CH═CH-CONH-nBu (peptide)
peptide: Cbz-Val-[AAsp]-{CH═CH‑CONH‑nBu}
On to B11, for which the k2 in assay [6] is 184 M⁻¹ s⁻¹; in assay [2] it was 55 M⁻¹ s⁻¹; in assay [1] it was 32 M⁻¹ s⁻¹.

B12: Cbz-Val-AAsp-CH═CH-COOEt (peptide)
peptide: Cbz-Val-[AAsp]-{CH═CH‑COOEt}
Turning to B12, the k2 in assay [4] is 389 M⁻¹ s⁻¹; in assay [6], 8000 M⁻¹ s⁻¹; in assay [2], 2680 M⁻¹ s⁻¹; in assay [1], 5240 M⁻¹ s⁻¹.

B13: Cbz-Asp-Glu-Val-AAsp-CH═CH-COOEt (cis) (peptide)
peptide: Cbz-DEV[AAsp]-{cis‑CH═CH‑COOEt}
Turning to B13, the k2 was determined as 26200 M⁻¹ s⁻¹ in assay [3]; 13500 M⁻¹ s⁻¹ in assay [4]; 181000 M⁻¹ s⁻¹ in assay [5]; 1.06e+06 M⁻¹ s⁻¹ in assay [6]; 139000 M⁻¹ s⁻¹ in assay [2]; 11000 M⁻¹ s⁻¹ in assay [7].

B14: Cbz-Glu-Val-AAsp-CH═CH-COOEt (peptide)
peptide: Cbz-Glu-Val-[AAsp]-{CH═CH‑COOEt}
SMILES: CCOC(=O)/C=C/C(=O)N(CC(=O)O)NC(=O)[C@@H](NC(=O)[C@H](CCC(=O)O)NC(=O)OCc1ccccc1)C(C)C
Consider B14, for which the k2 was 90 M⁻¹ s⁻¹ in assay [3]; 8940 M⁻¹ s⁻¹ in assay [4]; 38600 M⁻¹ s⁻¹ in assay [6]; 52400 M⁻¹ s⁻¹ in assay [2]; 3540 M⁻¹ s⁻¹ in assay [7].

B15: Cbz-Asp-Glu-Val-AAsp-CH═CH-CON(CH2-1-Napth)2 (peptide)
peptide: Cbz-DEV[AAsp]-{CH═CH‑CON(CH2-1-Napth)2}
Take B15: the k2 in assay [3] amounted to 410 M⁻¹ s⁻¹; in assay [4], 32500 M⁻¹ s⁻¹; in assay [5] it was 9460 M⁻¹ s⁻¹; in assay [6], 5.62e+06 M⁻¹ s⁻¹; in assay [2], 875000 M⁻¹ s⁻¹; in assay [7] it was 29700 M⁻¹ s⁻¹. The k2 in assay [1] stood at 150 M⁻¹ s⁻¹.

B16: Cbz-Asp-Glu-Val-AAsp-CH═CH-COPh (peptide)
peptide: Cbz-DEV[AAsp]-{CH═CH‑COPh}
In the case of B16, the k2 is 165 M⁻¹ s⁻¹ in assay [3]; 930 M⁻¹ s⁻¹ in assay [4]; 9720 M⁻¹ s⁻¹ in assay [5]; 122000 M⁻¹ s⁻¹ in assay [6]; 10800 M⁻¹ s⁻¹ in assay [2]; 1800 M⁻¹ s⁻¹ in assay [7].

B17: Cbz-Asp-Glu-Val-AAsp-CH═CH-CON(CH3)CH2Ph (peptide)
peptide: Cbz-DEV[AAsp]-{CH═CH‑CON(CH3)CH2Ph}
SMILES: CC(C)[C@H](NC(=O)[C@H](CCC(=O)O)NC(=O)[C@H](CC(=O)O)NC(=O)OCc1ccccc1)C(=O)NN(CC(=O)O)C(=O)/C=C/C(=O)N(C)Cc1ccccc1
As to B17, the k2 in assay [3] was determined as 660 M⁻¹ s⁻¹; in assay [4], 29400 M⁻¹ s⁻¹; in assay [5] it was 90300 M⁻¹ s⁻¹; in assay [6] it was 2.64e+06 M⁻¹ s⁻¹; in assay [2] it was 275000 M⁻¹ s⁻¹; in assay [7], 9500 M⁻¹ s⁻¹. This molecule also registered a k2 in assay [1] of 820 M⁻¹ s⁻¹.

B18: Cbz-Leu-Glu-Thr-AAsp-CH═CH-COOCH2Ph (peptide)
peptide: Cbz-LET[AAsp]-{CH═CH‑COOCH2Ph}
SMILES: CC(C)C[C@H](NC(=O)OCc1ccccc1)C(=O)N[C@@H](CCC(=O)O)C(=O)N[C@H](C(=O)NN(CC(=O)O)C(=O)/C=C/C(=O)OCc1ccccc1)[C@@H](C)O
On to B18, for which the k2 in assay [3] turned out to be 480 M⁻¹ s⁻¹; in assay [4], 18900 M⁻¹ s⁻¹; in assay [5], 98400 M⁻¹ s⁻¹; in assay [6] it was 4600 M⁻¹ s⁻¹; in assay [2], 1570 M⁻¹ s⁻¹; in assay [7], 47600 M⁻¹ s⁻¹.

B19: Cbz-Leu-Glu-Thr-AAsp-CH═CH-CONHCH2CH2Ph (peptide)
peptide: Cbz-LET[AAsp]-{CH═CH‑CONHCH2CH2Ph}
B19: the k2 is 110 M⁻¹ s⁻¹ in assay [3]; 17900 M⁻¹ s⁻¹ in assay [4]; 121000 M⁻¹ s⁻¹ in assay [5]; 5400 M⁻¹ s⁻¹ in assay [6]; 440 M⁻¹ s⁻¹ in assay [2]; 2150 M⁻¹ s⁻¹ in assay [7]. Also, the k2 in assay [1] was determined as 1760 M⁻¹ s⁻¹.
